Laboratory results: patent publication US20170246255

Key:
[1] = molecular target: T1, GLP-1 (3DMA)
T1 chain: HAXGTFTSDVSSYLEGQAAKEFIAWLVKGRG

[2] = molecular target: T2, GLP-1 (7-37)
T2 chain: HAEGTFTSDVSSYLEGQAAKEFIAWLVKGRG

[3] = molecular target: T3, GLP-1 (BM)
T3 chain: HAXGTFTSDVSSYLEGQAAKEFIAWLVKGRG

[4] = molecular target: T4, TLE-modified GLP-1 (7-37) analog
T4 chain: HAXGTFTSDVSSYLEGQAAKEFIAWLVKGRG

B1: human DPP IV (protein)
chain: SRKTYTLTDYLKNTYRLKLYSLRWISDHEYLYKQENNILVFNAEYGNSSVFLENSTFDEFGHSINDYSISPDGQFILLEYNYVKQWRHSYTASYDIYDLNKRQLITEERIPNNTQWVTWSPVGHKLAYVWNNDIYVKIEPNLPSYRITWTGKEDIIYNGITDWVYEEEVFSAYSALWWSPNGTFLAYAQFNDTEVPLIEYSFYSDESLQYPKTVRVPYPKAGAVNPTVKFFVVNTDSLSSVTNATSIQITAPASMLIGDHYLCDVTWATQERISLQWLRRIQNYSVMDICDYDESSGRWNCLVARQHIEMSTTGWVGRFRPSEPHFTLDGNSFYKIISNEEGYRHICYFQIDKKDCTFITKGTWEVIGIEALTSDYLYYISNEYKGMPGGRNLYKIQLSDYTKVTCLSCELNPERCQYYSVSFSKEAKYYQLRCSGPGLPLYTLHSSVNDKGLRVLEDNSALDKMLQNVQMPSKKLDFIILNETKFWYQMILPPHFDKSKKYPLLLDVYAGPCSQKADTVFRLNWATYLASTENIIVASFDGRGSGYQGDKIMHAINRRLGTFEVEDQIEAARQFSKMGFVDNKRIAIWGWSYGGYVTSMVLGSGSGVFKCGIAVAPVSRWEYYDSVYTERYMGLPTPEDNLDHYRNSTVMSRAENFKQVEYLLIHGTADDNVHFQQSAQISKALVDVGVDFQAMWYTDEDHGIASSTAHQHIYTHMSHFIKQCFSLP
[1]
  cleavage of the peptide by the enzyme, HPLC/MS: both GLP-1 (3DMA) and GLP-1 (BM) were resistant to cleavage by DPP IV in comparison to native GLP-1
[2]
  cleavage of the peptide by the enzyme, HPLC/MS after two hours: treatment with DPP IV resulted in a time dependent degradation of GLP-1
[3]
  cleavage of the peptide by the enzyme, HPLC/MS: both GLP-1 (3DMA) and GLP-1 (BM) were resistant to cleavage by DPP IV in comparison to native GLP-1
[4]
  cleavage of the peptide by the enzyme, HPLC/MS after two hours: TLE-modified GLP-1 is resistant to degradation by DPP IV
